In series [1] the target is T1, bovine pancreatic trypsin (Bos taurus, UniProt P00760).
T1 construct: purchased Worthington (Worthington Biochemical Corp.)
T1 sequence (P00760 24-246): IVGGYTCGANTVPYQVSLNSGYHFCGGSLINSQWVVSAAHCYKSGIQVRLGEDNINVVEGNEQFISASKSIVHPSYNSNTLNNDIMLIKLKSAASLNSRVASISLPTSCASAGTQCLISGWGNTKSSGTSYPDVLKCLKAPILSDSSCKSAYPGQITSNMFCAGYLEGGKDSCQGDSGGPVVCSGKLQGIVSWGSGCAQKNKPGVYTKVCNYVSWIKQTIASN
Nature of the series: Purification process yield of octuple variants (trypsin inhibition). Format: biochemical. As for the experimental part:
The best octuple variants selected in the shake flask screen were tested in the purification process essentially as described above, and including the following changes: 1) after growth, the culture was two fold diluted in glycine buffer (125 mM final concentration and pH adjusted to 9.0) instead of CHES buffer; 2) samples were activated with 2 mM 2-mercaptoethanol only (no sodium sulfite was added; 3) the acid precipitated fusion protein was resuspended in 100 ml of 125 mM glycine (rather than 350 ml of 40 mM glycine); and 4) the pellet collected after the acid/heat treatment was washed with 10 ml water, filtered, and this “washed pellet” filtrate was combined with the original filtrate. The final filtrates were concentrated and trimmed with Glu-BL as described above

The target in a further series is T2, VegF (UniProt P15692).
T2 sequence (P15692 207-395): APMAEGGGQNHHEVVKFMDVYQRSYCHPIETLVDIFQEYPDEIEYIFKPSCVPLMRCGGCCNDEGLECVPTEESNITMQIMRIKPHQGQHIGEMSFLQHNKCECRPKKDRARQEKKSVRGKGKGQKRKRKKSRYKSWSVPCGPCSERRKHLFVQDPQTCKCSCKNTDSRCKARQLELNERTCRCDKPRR
Nature of the series: BioVeris electrochemiluminescence competition binding assay, VEGF. To be noted: for IC50: Target protein VEGF, competition assay, concentration reducing BioVeris signal by one half, read-out: BioVeris Binding (apparent IC50). As for the experimental part:
Briefly, after cleavage, the pH of the cleaved sample was adjusted to 5.5, the sample was then loaded onto the column (equilibrated with 25 mM MES pH 5.5). The free 2BBIck81 was washed through the column using 25 mM sodium acetate pH 5.0 while the BCE103 catalytic core remained bound to the resin. The 2BBIck81 fraction was concentrated by ultrafiltration and analyzed using an electrochemiluminescence (ECL) based binding assay (BioVeris). The Anti-VegF antibody (Santa Cruz) and VegF (PeproTech) were labeled with the electrochemiluminescent dye and biotin, respectively, as described by the manufacturer (BioVeris). All materials were in Dulbecco's PBS (Mediatech) supplemented with 0.1% TWEEN®-80. An initial dilution series of Anti-VegF antibody (125, 250 and 500 ng/ml) and VegF (100, 150, 200 and 250 ng/ml) were tested in the binding assay to determine the concentrations of each that would give a robust ECL signal.
For testing 2BBIck81 binding, 50 μL of 500 ng/ml ECL labeled Anti-VegF antibody, 50 μL of 250 ng/ml biotinylated VegF and 100 μL 2BBIck81 (series of 12.5, 15, 31.25, 62.5, 125, 250 or 500 ng/ml) were incubated at room temperature for 2 h with shaking. Then, 50 μL of 0.2 mg/ml streptavidin coated beads were added and the reaction was incubated at room temperature for 30 minutes. The ECL signal was measured using a BioVeris M8/384 Analyzer as described by the manufacturer (BioVeris).
The resulting vectors were used to transform B. subtilis BG6006 host cells. Cultures were grown in 500 ml of MBD medium and the BBI species were purified essentially as described above and by Vogtentanz et al., 2007 (Protein Expr Purif 55:40-52 [2007]). BioVeris binding assays were performed essentially as outlined in Example 5 and by the manufacturer. Binding of the modified variant BBIs to their respective target proteins was measured using a BioVeris® binding assay, which is a competition assay that determines the binding of the modified variant BBIs to its target protein (e.g. VEGF, FGF5, TGFβ and TNFα) in the presence or absence of a labeled competitor. The competitor can be a labeled monoclonal antibody raised against the target protein or a labeled native receptor of the target protein. The electrochemiluminescent binding assays were performed essentially as described in Example 5. The apparent IC50s were determined from binding data by determining the concentration of the BBI species needed to reduce the BioVeris signal by one half. BBI scaffolds without the target binding peptide in the chymotrypsin inhibitory loop were used as negative controls.

For series [2], the target named is T1, bovine pancreatic trypsin. Kind of series: Shake flask screen: trypsin inhibition after growth, 2-mercaptoethanol activation and acid/heat treatment. Particulars: single substitutions in BBIt-AV. The class given is biochemical. As for the experimental part: To increase expression, the gene copy of the selected clones was amplified by sequentially streaking colonies on Luria agar plates with 25 μg/ml chloramphenicol until the growth rate was similar to growth on Luria agar plates without chloramphenicol. Cultures of the selected variants and controls were grown in 3 ml Luria broth with 25 μg/ml chloramphenicol in 15 ml tubes for ˜10 h. These cultures (30 μl) were then used to inoculate 30 ml of MBD medium in 250 ml baffled shake flasks and grown at 37° C. and 225 rpm for ˜60 h.
For selection of the variants with the best yields, the culture broths were processed as follows. The broth was first activated by mixing 20 ml of broth with 20 ml of 0.25 M glycine buffer (pH 9.3) and the pH was adjusted to 9.0 with 50% NaOH. Then, 2-mercaptoethanol was added to the diluted cultures to a final concentration of 2 mM and the cultures were incubated overnight at room temperature with gentle shaking. The BBIt-AV moiety was then cleaved from the fusion protein by acid/heat treatment, which was accomplished by first adjusting the pH of the activated broth to pH 1.9-2.0 with sulfuric acid, and followed by incubation at 60° C. for 16 hours, with shaking. The BBIt-AV-BCE fusion protein and the BCE catalytic domain are not soluble at pH 2, whereas the free BBI species is soluble. After the cleavage reaction, the insoluble material was removed by centrifugation (5 min. at 3,000 rpm) and the supernatant was analyzed for trypsin inhibitory activity as described above. The BBI activity was also determined for the starting material and for the samples taken after activation. The BCE activity of the starting material was also determined as described above. The BBIt-AV:BCE activity ratios were then calculated for each step in process. The modified BBIt-AVs produced at the highest yields following the acid/heat treatment were selected for further study.

Series [3] deals with T1, bovine pancreatic trypsin. Kind of series: BBIt-AV:BCE activity ratio, microtiter plate screens (primary, quadruplicate secondary). The class given is biochemical. Particulars: single substitution in BBIt-AV, in the presence of reducing agent. As for the experimental part:
The cultures in each master plate were thawed and a pin replicator was used to inoculate a new sterile microtiter plate containing 150 μl of Luria broth with 5 μg/ml chloramphenicol in each well. The plates were grown for ˜10 hrs in a humidified and aerated box as described above. For controls, the cultures in two wells were replaced with BBI and BBI-AV cultures that had been grown concurrently in 15 ml culture tubes (5 ml of Luria broth with 5 μg/ml chloramphenicol). After the cultures were grown, the plate was used to inoculate two duplicate 96-well filter plates (Millipore, MSGV2210) containing 150 μl of MBD medium (Vogtentanz et al., 2007) with 5 μg/ml chloramphenicol in each well by using a pin replicator. The duplicate plates were grown for ˜14 hours (as above, with plastic spacers placed between the stacked plates to allow for efficient air flow around the plates) and then 2-mecaptoethanol was added to each well in one of the plates to a final concentration of 2 mM. The plates were then grown for an additional ˜46 hours. The 96-well filter plates containing the culture broth (with or without added 2-mecaptoethanol) were then assayed for BBI and BCE activity.
Libraries were analyzed using dilutions of cultures grown in 96-well plates. Typically, the culture broth from each well was diluted (200 fold) in Assay Buffer (100 mM Tris pH 8.6, 0.005% Tween 80) and transferred to a second microtiter plate (CoStar 9017, Corning, Inc., Corning, N.Y.). Then, 20 μl of the diluted samples were transferred to a third microtiter plate. A standard curve was created by adding 20, 10, 5 or 2.5 μl of the diluted sBBI (SEQ ID NO:13) control culture to empty wells. Then, 80 μL of 50 ng/ml trypsin (bovine pancreatic trypsin, Worthington Biochemical Corp., Lakewood, N.J.) (prepared from a 1 mg/mL stock solution diluted into Assay Buffer) was added to each well of the plate. The reactions were mixed and incubated 15 min at room temperature. After the incubation, 100 μL of 0.5 mg/ml trypsin substrate (succinyl-Ala-Ala-Pro-Arg-para-nitroanilide, Bachem Bioscience, Inc., King of Prussia, Pa.), diluted in Assay Buffer from a 100 mg/ml solution in DMSO, was added to each well, mixed, and the absorbance at 405 nm was monitored for 15 min, with 1 time point recorded every 12 sec using a Spectra Max 250 (Molecular Devices). The data points were used to determine the rate for each reaction. The standard curve was generated by plotting the reaction rate versus the BBI volume and was fitted to a four-parameter equation. All data fitting was done using software supplied by the manufacturer (Molecular Devices Corp., Sunnyvale, Calif.). The activity of each BBIt-AV variant was calculated from the standard curve. Thus, the activities of all modified variant proteins were determined relative to the activity in the sBBI control (BBI-WT) culture.
The concentration of BCE was determined by an activity assay using purified BCE as a standard as described above and by (Vogtentanz et al. 2007). For the analysis of libraries grown in 96-well microtiter plates, 20 μl of culture broth were transferred to each well of a new microtiter plate. A standard curve was created by adding 20, 10, 5 or 2.5 μl of the diluted BBI-WT control culture to these empty wells. Then, 180 μl of the BCE substrate (0.25 μg/ml in Assay Buffer), 4-nitrophenyl β-D-cellobioside (Sigma, St. Louis, Mo.), was added to the plate. The plate was mixed and the absorbance at 405 nm monitored for 15 min, with 1 time point recorded every 12 s using a Spectra Max 250 (Molecular Devices Corp., Sunnyvale, Calif.). The data points were used to determine the rate for each reaction. The standard curve was generated by plotting rate versus culture volume and was fit to a quadratic curve. The BCE concentration in each variant culture was determined relative to the standard control culture. […]

As a reminder, the IC50 is the concentration that gives 50% inhibition.

B1: QQ8: octuple modified variant BBPI, SEQ ID NO:628 (protein)
chain: DPDDESSKPCCDQCICTKSNPPQCRCKDARRNECHSACKSCKCYNLYGWTCQCQDITDFCYEPCKPSE
modifications: synthetic BBPI variant
Regarding B1, in series [1], the “purification yield relative to quintuple variant (SEQ ID NO:601)” value was “greater than that of the quintuple modified variant” and the “yield relative to wild-type sBBI” value is reported as “better than the wild-type sBBI”.

B2: KT8: octuple modified variant BBPI, SEQ ID NO:627 (protein)
chain: DPDDESSKPCCDQCICTKSNPPQCRCRDARPNACHSACKSCHCYNLYGWTCKCTDITDFCYEPCKPSE
modifications: synthetic BBPI variant
Consider B2, for which, in series [1], the “purification yield relative to quintuple variant (SEQ ID NO:601)” value is recorded as “greater than that of the quintuple modified variant” and the “yield relative to wild-type sBBI” value is given as “better than the wild-type sBBI”.

B3: RL8: octuple modified variant BBPI, SEQ ID NO:630 (protein)
chain: DPDDESSKPCCDQCICTKSNPPQCRCKDARRNACHSACKSCHCYNLYGWTCRCLDITDFCYEPCKPSE
modifications: synthetic BBPI variant
As to B3, the “yield relative to wild-type sBBI” value in series [1] was “better than the wild-type sBBI”.

B4: BBIt-AV of SEQ ID NO: 640 (protein)
chain: DPDDESSKPCCDQCICTKSNPPQCRCRDARPNACHSACKSCACKYYLYWWCKCTDITDFCYEPCKPSE
modifications: synthetic BBIt-VEGK
As for B4, the IC50 in the series with VegF was 2 to 10 µM.

B5: BBIt-AV of SEQ ID NO: 641 (protein)
chain: DPDDESSKPCCDQCICTKSNPPQCRCRDARPNACHSACKSCACTLWKSYWCKCTDITDFCYEPCKPSE
modifications: synthetic BBIt-VEGT
For B5, the IC50 with VegF fell in the range of 2 to 10 µM.

B6: BBIt-AV of SEQ ID NO: 642 (protein)
chain: DPDDESSKPCCDQCICTKSNPPQCRCRDARPNACHSACKSCACKYDLYWWCKCTDITDFCYEPCKPSE
modifications: synthetic BBIt-VEGKD
Regarding B6, the IC50 with VegF lay in the range of 2 to 10 µM.

B7: BBIt-AV: truncated BBI-AV lacking the 5 C-terminal amino acids, unmodified variant, SEQ ID NO:187 (protein)
chain: DDESSKPCCDQCACTKSNPPQCRCSDMRLNSCHSACKSCACYNLYGWTCFCVDITDFCYEPCKPSE
modifications: synthetic BBIt-AV sequence
As for B7, in the series with VegF (labeled monoclonal antibody against VEGF as competitor), the “binding to VEGF compared with full-length (untruncated) BBI-AV” value is “bind better than the full-length molecule”.

B8: V52L: BBIt-AV (SEQ ID NO:187) with single substitution V52L (protein)
chain: DDESSKPCCDQCACTKSNPPQCRCSDMRLNSCHSACKSCACYNLYGWTCFCLDITDFCYEPCKPSE
modifications: synthetic BBIt-AV sequence
Take B8: the “activation level (BBIt-AV:BCE activity ratio after reducing agent)” value in series [2] was “activate to similar levels”. The “relative activity of the amino acid substitution (BBI:BCE activity ratio vs BBIt-AV), amino acid present in BBIsb3-AV” value in series [3] was “L (+)”.

The values are drawn from patent publication US7772181B2, “Personal care compositions comprising modified variant Bowman Birk Protease Inhibitors” (Danisco US Inc., priority 2008, dated 2010).
